Source: PMC3596254

Molecular target: GFP-tagged T759A mutant DIAPH1 (murine pEGFP-mDia T751A) (murine) (UniProt O08808)
Assay: co-IP

UniProt O08808, sequence (O08808 whole entry T751A): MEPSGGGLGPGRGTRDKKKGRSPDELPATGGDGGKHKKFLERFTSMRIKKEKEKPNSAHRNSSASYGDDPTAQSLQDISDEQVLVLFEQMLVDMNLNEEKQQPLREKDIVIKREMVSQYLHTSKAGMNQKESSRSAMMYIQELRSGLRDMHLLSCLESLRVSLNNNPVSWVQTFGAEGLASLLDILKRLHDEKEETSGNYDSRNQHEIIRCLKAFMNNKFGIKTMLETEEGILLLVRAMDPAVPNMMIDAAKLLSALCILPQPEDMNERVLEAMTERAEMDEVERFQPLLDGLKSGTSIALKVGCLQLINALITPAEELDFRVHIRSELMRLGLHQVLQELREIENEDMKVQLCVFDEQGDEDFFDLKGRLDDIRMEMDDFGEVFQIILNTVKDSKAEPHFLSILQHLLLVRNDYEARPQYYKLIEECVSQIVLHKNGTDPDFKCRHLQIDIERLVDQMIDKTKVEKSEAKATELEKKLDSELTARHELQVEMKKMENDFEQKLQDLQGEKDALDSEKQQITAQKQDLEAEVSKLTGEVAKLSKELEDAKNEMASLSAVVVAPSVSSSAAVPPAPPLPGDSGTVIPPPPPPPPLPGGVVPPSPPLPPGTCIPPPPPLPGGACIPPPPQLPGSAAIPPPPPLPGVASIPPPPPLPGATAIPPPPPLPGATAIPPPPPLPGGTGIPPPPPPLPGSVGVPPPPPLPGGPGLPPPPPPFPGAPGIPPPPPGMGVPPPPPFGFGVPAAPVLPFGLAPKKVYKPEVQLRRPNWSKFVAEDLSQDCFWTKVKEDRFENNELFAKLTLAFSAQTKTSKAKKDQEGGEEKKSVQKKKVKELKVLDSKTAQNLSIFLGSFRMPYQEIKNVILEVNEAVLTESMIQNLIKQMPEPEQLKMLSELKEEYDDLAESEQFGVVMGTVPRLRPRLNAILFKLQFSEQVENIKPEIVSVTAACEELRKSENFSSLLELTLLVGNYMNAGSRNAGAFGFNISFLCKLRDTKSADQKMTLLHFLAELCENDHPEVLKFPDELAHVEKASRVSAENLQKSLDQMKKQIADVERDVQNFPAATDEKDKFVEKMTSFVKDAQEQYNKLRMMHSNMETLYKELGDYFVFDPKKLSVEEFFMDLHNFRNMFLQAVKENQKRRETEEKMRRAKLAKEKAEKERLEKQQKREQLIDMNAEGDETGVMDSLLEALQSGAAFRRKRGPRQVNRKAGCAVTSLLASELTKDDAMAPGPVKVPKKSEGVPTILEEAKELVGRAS

Row | percent decrease of the co-precipitate against wild type [%] | Substance
1 | 86 | Actin, β (from UniProt P60709 1-375) (natural protein)
2 | 65 | Kinesin heavy chain (from UniProt P33176 1-963) (natural protein)
